The test addresses megalin (human (endogenous in primary PTECs)) (UniProt P98164).
Chain of UniProt P98164 (P98164 26-4655): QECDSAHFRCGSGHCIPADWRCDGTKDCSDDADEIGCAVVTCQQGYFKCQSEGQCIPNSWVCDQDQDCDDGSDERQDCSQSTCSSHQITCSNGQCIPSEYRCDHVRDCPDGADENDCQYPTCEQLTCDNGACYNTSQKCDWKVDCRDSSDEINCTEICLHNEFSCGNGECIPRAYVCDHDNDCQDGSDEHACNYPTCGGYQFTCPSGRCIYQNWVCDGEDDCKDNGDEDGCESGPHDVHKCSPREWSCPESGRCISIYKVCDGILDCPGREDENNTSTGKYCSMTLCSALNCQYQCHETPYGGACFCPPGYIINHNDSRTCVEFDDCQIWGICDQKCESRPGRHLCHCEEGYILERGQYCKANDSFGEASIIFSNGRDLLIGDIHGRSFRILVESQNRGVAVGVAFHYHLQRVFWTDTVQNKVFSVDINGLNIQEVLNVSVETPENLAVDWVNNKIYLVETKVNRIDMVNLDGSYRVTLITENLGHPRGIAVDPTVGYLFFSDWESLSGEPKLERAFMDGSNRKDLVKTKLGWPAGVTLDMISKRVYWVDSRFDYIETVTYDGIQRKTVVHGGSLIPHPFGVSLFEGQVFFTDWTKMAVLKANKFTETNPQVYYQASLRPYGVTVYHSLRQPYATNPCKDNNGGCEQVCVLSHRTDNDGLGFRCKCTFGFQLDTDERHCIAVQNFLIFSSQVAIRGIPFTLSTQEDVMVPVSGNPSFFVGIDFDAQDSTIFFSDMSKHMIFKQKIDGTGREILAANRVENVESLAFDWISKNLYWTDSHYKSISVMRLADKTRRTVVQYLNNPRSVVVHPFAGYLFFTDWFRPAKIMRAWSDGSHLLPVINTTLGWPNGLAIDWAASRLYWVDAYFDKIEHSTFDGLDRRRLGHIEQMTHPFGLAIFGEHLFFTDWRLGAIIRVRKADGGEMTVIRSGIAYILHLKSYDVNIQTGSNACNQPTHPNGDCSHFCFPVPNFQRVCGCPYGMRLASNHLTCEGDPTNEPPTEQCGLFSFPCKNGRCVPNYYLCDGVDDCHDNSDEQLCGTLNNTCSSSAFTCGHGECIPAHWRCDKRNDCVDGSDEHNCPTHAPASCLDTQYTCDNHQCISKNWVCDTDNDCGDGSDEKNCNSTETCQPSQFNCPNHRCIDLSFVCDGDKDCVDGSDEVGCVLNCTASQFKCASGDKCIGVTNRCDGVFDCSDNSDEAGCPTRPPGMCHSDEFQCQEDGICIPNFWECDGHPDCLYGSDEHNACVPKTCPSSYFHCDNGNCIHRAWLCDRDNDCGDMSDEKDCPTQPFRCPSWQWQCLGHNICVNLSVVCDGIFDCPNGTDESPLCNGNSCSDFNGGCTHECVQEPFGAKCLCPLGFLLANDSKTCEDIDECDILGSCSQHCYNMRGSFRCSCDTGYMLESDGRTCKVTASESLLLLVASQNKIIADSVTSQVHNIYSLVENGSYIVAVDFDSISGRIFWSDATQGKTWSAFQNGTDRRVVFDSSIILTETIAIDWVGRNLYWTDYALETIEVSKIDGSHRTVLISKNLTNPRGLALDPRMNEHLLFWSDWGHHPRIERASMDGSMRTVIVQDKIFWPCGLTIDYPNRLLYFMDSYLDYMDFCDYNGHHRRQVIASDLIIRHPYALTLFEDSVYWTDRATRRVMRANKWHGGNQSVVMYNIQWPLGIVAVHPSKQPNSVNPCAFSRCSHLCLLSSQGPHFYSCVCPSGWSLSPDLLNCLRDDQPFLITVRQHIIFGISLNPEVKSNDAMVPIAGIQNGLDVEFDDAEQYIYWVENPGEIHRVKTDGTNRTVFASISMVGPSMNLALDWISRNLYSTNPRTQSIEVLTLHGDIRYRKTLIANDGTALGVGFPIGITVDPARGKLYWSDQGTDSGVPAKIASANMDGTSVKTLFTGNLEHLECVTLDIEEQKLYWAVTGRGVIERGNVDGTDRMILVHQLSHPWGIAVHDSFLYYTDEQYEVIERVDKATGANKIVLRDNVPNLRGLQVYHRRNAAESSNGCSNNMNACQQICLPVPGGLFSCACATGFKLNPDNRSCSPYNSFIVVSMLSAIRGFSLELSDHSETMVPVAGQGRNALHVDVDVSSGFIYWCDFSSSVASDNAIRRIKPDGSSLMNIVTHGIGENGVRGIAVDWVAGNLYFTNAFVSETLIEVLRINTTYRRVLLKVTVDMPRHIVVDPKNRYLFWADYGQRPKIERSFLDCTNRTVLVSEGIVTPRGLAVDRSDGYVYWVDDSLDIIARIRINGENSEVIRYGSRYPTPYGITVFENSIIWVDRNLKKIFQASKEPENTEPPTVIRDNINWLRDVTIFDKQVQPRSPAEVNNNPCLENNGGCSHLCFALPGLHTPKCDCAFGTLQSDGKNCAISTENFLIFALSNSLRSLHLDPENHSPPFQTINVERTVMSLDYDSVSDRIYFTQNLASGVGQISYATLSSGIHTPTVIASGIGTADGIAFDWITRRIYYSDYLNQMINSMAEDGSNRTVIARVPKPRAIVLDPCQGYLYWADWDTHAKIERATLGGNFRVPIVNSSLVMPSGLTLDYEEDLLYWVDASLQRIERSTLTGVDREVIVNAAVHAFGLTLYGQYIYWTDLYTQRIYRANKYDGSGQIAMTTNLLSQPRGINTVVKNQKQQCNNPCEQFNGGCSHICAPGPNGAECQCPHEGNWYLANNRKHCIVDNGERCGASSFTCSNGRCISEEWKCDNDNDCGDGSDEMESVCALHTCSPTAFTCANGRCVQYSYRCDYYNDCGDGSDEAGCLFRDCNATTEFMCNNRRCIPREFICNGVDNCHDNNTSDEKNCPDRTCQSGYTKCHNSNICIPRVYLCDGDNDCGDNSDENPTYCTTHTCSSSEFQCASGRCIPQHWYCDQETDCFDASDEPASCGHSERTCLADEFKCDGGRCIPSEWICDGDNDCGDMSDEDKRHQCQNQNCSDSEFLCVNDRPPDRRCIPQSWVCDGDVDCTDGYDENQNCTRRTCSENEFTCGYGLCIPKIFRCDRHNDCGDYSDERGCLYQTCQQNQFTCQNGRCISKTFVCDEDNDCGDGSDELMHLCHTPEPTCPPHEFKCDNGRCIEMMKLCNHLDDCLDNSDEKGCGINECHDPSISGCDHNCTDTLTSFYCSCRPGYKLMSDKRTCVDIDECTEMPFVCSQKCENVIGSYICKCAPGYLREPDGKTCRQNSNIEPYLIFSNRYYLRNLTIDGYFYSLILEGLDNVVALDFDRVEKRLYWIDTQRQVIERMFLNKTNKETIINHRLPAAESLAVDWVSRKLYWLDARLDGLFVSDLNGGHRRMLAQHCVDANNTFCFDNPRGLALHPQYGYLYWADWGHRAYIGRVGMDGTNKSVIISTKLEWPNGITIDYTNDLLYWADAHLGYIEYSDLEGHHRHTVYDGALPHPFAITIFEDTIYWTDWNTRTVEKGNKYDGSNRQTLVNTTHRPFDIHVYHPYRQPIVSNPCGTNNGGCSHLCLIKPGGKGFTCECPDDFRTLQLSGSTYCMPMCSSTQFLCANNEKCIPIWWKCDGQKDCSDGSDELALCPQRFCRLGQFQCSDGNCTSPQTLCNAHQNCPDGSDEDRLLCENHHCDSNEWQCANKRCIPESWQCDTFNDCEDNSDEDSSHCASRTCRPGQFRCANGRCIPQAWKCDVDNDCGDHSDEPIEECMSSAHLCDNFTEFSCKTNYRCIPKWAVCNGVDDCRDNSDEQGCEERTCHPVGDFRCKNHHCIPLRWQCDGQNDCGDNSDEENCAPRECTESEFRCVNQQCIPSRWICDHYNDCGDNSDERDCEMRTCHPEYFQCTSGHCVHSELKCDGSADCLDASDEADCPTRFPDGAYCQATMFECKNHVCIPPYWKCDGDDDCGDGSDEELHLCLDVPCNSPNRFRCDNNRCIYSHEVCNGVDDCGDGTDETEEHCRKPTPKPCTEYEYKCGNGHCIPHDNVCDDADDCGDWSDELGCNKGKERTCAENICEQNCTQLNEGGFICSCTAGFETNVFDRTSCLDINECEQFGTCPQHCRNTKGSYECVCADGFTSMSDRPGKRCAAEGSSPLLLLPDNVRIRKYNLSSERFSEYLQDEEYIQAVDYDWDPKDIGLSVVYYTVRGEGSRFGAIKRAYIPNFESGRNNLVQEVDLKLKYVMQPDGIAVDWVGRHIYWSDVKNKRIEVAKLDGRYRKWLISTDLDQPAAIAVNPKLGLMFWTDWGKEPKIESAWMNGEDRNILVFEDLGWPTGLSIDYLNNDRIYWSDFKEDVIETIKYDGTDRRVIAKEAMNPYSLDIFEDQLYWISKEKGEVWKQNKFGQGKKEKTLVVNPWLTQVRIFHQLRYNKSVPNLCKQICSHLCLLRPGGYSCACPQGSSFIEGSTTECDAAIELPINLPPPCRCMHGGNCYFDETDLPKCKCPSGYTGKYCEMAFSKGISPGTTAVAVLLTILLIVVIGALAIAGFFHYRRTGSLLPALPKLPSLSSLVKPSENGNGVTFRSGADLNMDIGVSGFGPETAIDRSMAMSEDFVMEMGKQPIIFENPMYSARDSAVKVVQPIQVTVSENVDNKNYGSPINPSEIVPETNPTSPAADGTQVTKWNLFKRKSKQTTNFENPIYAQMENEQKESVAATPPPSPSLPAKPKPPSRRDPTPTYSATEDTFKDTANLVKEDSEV

As to “Mixed type human vitamin D binding protein (from UniProt P02774 17-474) (natural protein)”, the intrinsic clearance of 25OHD3 loss (CLint,25OHD3) from the perfusion medium of the PT-MPS with 3 uM DBP; fold-change with 1 uM RAP (megalin inhibitor) against no RAP, geometric mean of 5 donors (fold reduction) came to 2.4.

The values are drawn from publication PMC6896899.
